{
  "source": "patent US20250382602",
  "key": {"[1]": {"target": "T1, Dda 1993 K358I K358I (Enterobacteria phage T4) (UniProt P32270)", "T1 sequence": "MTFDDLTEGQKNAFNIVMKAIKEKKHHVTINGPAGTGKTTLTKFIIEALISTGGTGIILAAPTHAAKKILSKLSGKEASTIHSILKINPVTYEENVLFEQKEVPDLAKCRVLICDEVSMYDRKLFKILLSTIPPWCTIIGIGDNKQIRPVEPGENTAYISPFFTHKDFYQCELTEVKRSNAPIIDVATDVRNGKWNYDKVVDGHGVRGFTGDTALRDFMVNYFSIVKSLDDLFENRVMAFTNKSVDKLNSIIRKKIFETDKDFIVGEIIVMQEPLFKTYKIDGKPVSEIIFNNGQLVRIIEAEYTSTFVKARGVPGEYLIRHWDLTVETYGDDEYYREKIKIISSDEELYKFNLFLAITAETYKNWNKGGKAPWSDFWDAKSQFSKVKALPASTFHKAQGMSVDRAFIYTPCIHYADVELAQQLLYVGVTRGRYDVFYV", "details": "nanopore translocation, FLO-MIN112; background mutations not given"}, "[2]": {"target": "T2, Dda 1993 N221E N221E (Enterobacteria phage T4) (UniProt P32270)", "T2 sequence": "T1 sequence with N221E, I358K", "details": "nanopore translocation, PromethION; background mutations not given"}, "[3]": {"target": "T3, Dda 1993 T156F T156F (Enterobacteria phage T4) (UniProt P32270)", "T3 sequence": "T1 sequence with T156F, I358K", "details": "nanopore translocation, PromethION; background mutations not given"}, "[4]": {"target": "T4, Dda 1993 T210K T210K (Enterobacteria phage T4) (UniProt P32270)", "T4 sequence": "T1 sequence with T210K, I358K", "details": "nanopore translocation, PromethION; background mutations not given"}, "[5]": {"target": "T5, Dda 1993 T55K T55K (Enterobacteria phage T4) (UniProt P32270)", "T5 sequence": "T1 sequence with T55K, I358K", "details": "nanopore translocation, PromethION; background mutations not given"}, "[6]": {"target": "T6, Dda 1993 Y350E Y350E (Enterobacteria phage T4) (UniProt P32270)", "T6 sequence": "T1 sequence with Y350E, I358K", "details": "nanopore translocation, PromethION; background mutations not given"}},
  "note": "Changes are numbered by the printed parent chain.",
  "data": [
    {"substance": "barcoded 3.6 kb DNA analyte ligated to sequencing Y adaptor", "values": [
      {"measurement": "activity (bps speed delta vs control)", "setting": "[1]", "value": -5.51},
      {"measurement": "activity (bps speed delta vs control)", "setting": "[2]", "value": 4.37},
      {"measurement": "activity (bps speed delta vs control)", "setting": "[3]", "value": 13.8},
      {"measurement": "activity (bps speed delta vs control)", "setting": "[4]", "value": 0.52},
      {"measurement": "activity (bps speed delta vs control)", "setting": "[5]", "value": 8.29},
      {"measurement": "activity (bps speed delta vs control)", "setting": "[6]", "value": 6.06}
    ]}
  ]
}
